Bridge positions count the residues as written; N and C are the ends.
T1: ETA (h) (human), P25101
T1 chain: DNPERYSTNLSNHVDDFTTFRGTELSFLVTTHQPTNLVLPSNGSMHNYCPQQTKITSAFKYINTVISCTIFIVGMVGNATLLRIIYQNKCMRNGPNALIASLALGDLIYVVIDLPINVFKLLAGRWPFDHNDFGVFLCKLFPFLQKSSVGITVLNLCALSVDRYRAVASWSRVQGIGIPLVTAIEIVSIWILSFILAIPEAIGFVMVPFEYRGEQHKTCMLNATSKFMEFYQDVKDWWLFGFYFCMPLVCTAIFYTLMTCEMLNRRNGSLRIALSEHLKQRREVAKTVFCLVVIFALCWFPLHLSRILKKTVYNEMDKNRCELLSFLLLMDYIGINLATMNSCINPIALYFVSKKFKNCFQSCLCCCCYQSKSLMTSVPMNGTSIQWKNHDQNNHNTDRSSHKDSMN

T2: AR (h) (human), P10275
T2 chain: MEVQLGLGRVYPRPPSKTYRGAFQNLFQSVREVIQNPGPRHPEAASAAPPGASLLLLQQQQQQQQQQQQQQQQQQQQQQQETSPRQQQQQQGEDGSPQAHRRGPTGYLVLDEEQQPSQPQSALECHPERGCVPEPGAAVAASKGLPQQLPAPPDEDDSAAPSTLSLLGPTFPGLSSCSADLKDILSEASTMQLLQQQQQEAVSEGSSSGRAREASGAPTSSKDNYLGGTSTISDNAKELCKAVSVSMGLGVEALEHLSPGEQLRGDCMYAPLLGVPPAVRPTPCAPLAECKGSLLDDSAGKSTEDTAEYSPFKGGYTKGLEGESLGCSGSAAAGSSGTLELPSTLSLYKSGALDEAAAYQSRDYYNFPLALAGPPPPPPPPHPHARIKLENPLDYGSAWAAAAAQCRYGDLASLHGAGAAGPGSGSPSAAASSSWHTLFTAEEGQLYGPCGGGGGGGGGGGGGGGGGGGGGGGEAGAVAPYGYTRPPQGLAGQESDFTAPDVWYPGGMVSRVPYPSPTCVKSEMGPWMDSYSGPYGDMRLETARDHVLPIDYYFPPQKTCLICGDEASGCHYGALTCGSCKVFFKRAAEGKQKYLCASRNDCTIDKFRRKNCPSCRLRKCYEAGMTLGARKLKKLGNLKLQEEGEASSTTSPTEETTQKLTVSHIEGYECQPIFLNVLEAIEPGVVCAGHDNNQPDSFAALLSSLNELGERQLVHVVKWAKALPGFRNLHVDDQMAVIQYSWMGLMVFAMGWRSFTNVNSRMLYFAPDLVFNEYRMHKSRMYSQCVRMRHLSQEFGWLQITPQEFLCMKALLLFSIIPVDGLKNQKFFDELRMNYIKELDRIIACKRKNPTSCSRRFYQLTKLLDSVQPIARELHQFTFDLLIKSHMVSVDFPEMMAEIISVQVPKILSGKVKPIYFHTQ

T3: A2A (h) (human), P29274
T3 chain: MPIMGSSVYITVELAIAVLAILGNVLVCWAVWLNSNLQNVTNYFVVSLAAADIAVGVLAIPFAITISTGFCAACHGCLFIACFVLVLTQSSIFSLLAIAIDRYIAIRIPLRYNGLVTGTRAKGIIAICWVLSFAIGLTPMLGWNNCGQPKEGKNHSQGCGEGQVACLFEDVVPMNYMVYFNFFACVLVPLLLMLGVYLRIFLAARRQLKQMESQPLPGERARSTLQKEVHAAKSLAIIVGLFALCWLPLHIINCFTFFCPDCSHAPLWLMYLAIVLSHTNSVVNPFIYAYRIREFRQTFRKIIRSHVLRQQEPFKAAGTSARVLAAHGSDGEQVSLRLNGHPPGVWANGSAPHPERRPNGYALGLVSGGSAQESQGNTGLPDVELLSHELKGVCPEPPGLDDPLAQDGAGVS

T4: delta (DOP) (h) (human), P41143
T4 chain: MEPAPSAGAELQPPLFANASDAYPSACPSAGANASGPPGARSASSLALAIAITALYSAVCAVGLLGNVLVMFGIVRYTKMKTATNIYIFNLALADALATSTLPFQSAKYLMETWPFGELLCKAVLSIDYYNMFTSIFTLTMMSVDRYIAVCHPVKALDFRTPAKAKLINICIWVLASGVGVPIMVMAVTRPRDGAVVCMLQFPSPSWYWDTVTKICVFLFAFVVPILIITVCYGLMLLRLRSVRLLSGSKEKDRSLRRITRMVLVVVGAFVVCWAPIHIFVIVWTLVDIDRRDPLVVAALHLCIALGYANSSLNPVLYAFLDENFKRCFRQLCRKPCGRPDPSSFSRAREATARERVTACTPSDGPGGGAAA


Legend:
Assay in all cases: radioligand displacement (agonist radioligand), 10 µM
Settings in all cases: remark: other sources report otherwise
[1] = biological target: beta 1 (h) (human), P08588
ETA (h) (human), P25101 = biological target: T1, ETA (h) (human), P25101
CB2 (h) (human), P34972 = biological target: CB2 (h) (human), P34972
[2] = biological target: mu (MOP) (h) (human), P35372
[3] = biological target: kappa (h) (KOP) (human), P41145
[4] = substrate: N neuronal alpha 4beta 2 (h) (human), P43681
AR (h) (human), P10275 = biological target: T2, AR (h) (human), P10275
[5] = biological target: 5-HT2A (h) (human), P28223
A2A (h) (human), P29274 = biological target: T3, A2A (h) (human), P29274
[6] = biological target: T4, delta (DOP) (h) (human), P41143

Chain of kappa (h) (KOP) (human), P41145 (P41145 whole entry): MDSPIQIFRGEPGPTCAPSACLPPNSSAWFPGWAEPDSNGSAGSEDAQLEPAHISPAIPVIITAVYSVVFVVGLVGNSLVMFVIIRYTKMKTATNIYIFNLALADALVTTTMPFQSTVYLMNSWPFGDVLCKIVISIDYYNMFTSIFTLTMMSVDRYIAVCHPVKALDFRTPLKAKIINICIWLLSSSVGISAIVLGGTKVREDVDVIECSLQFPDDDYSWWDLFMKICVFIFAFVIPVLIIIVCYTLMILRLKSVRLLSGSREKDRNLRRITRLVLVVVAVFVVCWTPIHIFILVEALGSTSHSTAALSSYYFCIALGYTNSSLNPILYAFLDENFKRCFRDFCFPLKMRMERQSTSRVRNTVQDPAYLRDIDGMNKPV
Chain of mu (MOP) (h) (human), P35372 (P35372 whole entry): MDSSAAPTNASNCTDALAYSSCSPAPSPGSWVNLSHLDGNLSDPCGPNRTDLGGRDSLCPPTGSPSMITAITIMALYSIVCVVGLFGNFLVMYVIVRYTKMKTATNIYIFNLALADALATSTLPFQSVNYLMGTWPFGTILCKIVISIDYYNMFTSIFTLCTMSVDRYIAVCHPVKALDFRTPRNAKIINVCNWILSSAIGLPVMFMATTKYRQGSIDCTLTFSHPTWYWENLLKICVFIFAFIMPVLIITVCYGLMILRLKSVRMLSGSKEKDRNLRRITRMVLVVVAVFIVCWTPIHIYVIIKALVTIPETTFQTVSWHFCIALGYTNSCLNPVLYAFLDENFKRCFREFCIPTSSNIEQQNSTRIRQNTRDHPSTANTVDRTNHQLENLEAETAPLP
Chain of CB2 (h) (human), P34972 (P34972 whole entry): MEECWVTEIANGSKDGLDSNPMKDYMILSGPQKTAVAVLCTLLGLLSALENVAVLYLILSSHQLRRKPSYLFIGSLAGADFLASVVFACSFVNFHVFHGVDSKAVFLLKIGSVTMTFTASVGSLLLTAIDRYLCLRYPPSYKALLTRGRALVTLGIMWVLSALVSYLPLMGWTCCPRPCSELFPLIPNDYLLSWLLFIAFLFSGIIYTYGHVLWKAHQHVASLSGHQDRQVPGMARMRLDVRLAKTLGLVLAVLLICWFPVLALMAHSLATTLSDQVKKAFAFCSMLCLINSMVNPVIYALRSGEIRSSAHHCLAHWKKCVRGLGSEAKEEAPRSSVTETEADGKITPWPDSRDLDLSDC
Chain of 5-HT2A (h) (human), P28223 (P28223 whole entry): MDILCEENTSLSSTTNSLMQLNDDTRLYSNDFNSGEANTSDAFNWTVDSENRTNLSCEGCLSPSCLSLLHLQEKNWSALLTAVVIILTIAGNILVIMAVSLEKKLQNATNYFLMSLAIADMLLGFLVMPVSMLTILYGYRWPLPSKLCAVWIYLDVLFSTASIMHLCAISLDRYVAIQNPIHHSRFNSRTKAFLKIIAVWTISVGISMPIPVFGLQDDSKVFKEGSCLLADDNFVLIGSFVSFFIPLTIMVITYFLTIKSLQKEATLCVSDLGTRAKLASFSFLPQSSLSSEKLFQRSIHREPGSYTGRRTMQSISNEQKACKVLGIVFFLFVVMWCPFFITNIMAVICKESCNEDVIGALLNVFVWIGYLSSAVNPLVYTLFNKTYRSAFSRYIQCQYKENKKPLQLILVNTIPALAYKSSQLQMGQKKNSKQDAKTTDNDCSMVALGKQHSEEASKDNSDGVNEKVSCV
Chain of beta 1 (h) (human), P08588 (P08588 whole entry): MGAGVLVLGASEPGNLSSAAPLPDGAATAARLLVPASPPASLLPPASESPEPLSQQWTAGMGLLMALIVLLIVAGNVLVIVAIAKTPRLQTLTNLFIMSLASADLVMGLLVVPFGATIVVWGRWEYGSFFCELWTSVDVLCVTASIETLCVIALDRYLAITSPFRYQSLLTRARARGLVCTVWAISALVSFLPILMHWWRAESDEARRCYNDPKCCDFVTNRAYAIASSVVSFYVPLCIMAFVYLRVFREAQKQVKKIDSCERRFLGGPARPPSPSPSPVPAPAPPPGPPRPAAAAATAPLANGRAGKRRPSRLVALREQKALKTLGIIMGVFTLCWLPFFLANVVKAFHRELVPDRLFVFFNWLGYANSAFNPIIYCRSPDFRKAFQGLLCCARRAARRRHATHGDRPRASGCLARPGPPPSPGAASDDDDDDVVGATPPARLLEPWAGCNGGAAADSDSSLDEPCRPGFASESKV
Chain of N neuronal alpha 4beta 2 (h) (human), P43681 (P43681 27-627, chain 1 of 2): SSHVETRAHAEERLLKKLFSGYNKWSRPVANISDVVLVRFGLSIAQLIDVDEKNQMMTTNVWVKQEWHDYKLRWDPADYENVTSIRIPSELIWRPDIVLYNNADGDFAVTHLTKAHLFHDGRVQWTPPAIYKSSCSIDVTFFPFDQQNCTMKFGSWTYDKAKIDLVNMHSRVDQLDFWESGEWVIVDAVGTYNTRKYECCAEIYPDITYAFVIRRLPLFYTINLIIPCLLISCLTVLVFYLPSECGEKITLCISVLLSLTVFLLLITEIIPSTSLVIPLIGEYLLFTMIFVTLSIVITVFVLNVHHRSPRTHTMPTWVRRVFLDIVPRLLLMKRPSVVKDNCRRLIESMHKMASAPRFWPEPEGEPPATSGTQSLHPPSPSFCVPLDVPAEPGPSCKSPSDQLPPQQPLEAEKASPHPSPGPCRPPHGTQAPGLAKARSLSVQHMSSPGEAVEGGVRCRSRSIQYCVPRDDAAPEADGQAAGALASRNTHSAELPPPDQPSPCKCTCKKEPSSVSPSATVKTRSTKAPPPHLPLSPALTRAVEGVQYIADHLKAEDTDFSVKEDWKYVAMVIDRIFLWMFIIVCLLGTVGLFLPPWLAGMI
Chain of N neuronal alpha 4beta 2 (h) (human), P43681 (P17787 26-502, chain 2 of 2, further chain): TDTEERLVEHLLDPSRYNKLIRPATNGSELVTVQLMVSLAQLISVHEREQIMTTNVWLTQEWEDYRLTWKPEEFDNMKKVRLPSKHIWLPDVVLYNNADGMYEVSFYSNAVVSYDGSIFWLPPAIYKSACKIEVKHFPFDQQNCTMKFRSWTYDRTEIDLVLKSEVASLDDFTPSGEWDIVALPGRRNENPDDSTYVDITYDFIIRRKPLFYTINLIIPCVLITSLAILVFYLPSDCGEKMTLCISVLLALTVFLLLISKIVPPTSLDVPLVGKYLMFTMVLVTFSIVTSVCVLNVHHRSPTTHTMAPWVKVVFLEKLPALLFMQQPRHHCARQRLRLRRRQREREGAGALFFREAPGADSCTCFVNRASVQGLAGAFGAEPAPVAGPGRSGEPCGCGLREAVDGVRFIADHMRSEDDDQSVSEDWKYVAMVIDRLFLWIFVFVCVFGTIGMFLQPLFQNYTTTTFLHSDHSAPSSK

Row | Binder | % Inhibition of Specific Binding [1] [%] | % Inhibition of Specific Binding (ETA (h) (human), P25101) [%] | % Inhibition of Specific Binding (CB2 (h) (human), P34972) [%] | % Inhibition of Specific Binding [2] [%] | % Inhibition of Specific Binding [3] [%] | % Inhibition of Specific Binding [4] [%] | % Inhibition of Specific Binding (AR (h) (human), P10275) [%] | % Inhibition of Specific Binding [5] [%] | % Inhibition of Specific Binding (A2A (h) (human), P29274) [%] | % Inhibition of Specific Binding [6] [%]
1 | Hex-CPPTQFCD-NH2 (bridge 1-7; not fully specified (bridges); printed as Hex-[Cys(tMeBn(DOTA-PP))-Pro-Pro-Thr-Gln-Phe-Cys]-Asp-NH2) [Hex-[Cys(tMeBn(DOTA-PP))-Pro-Pro-Thr-Gln-Phe-Cys]-Asp-NH2] | 4 | -18 | 2 | 2 | 7 | -8 | 3 | -2 | -4 | 0
2 | Hex-CPPTQFC-OH (bridge 1-7; not fully specified (bridges); printed as Hex-[Cys(tMeBn(DOTA-AET))-Pro-Pro-Thr-Gln-Phe-Cys]-OH) [Hex-[Cys(tMeBn(DOTA-AET))-Pro-Pro-Thr-Gln-Phe-Cys]-OH] | -13 | 6 | -5 | -10 | 10 | -2 | -5 | 4 | -16 | 1
